B1: SND1: host protein, UniProt Q7KZF4 (protein, UniProt Q7KZF4 2-910, looked up)
Staphylococcal nuclease …: ASSAQSGGSSGGPAVPTVQRGIIKMVLSGCAIIVRGQPRGGPPPERQINLSNIRAGNLARRAAATQPDAKDTPDEPWAFPAREFLRKKLIGKEVCFTIENKTPQGREYGMIYLGKDTNGENIAESLVAEGLATRREGMRANNPEQNRLSECEEQAKAAKKGMWSEGNGSHTIRDLKYTIENPRHFVDSHHQKPVNAIIEHVRDGSVVRALLLPDYYLVTVMLSGIKCPTFRREADGSETPEPFAAEAKFFTESRLLQRDVQIILESCHNQNILGTILHPNGNITELLLKEGFARCVDWSIAVYTRGAEKLRAAERFAKERRLRIWRDYVAPTANLDQKDKQFVAKVMQVLNADAIVVKLNSGDYKTIHLSSIRPPRLEGENTQDKNKKLRPLYDIPYMFEAREFLRKKLIGKKVNVTVDYIRPASPATETVPAFSERTCATVTIGGINIAEALVSKGLATVIRYRQDDDQRSSHYDELLAAEARAIKNGKGLHSKKEVPIHRVADISGDTQKAKQFLPFLQRAGRSEAVVEYVFSGSRLKLYLPKETCLITFLLAGIECPRGARNLPGLVQEGEPFSEEATLFTKELVLQREVEVEVESMDKAGNFIGWLHIDGANLSVLLVEHALSKVHFTAERSSYYKSLLSAEEAAKQKKEKVWAHYEEQPVEEVMPVLEEKERSASYKPVFVTEITDDLHFYVQDVETGTQLEKLMENMRNDIASHPPVEGSYAPRRGEFCIAKFVDGEWYRARVEKVESPAKIHVFYIDYGNREVLPSTRLGTLSPAFSTRVLPAQATEYAFAFIQVPQDDDARTDAVDSVVRDIQNTQCLLNVEHLSAGCPHVTLQFADSKGDVGLGLVKEGLVMVEVRKEKQFQKVITEYLNAQESAKSARLNLWRYGDFRADDADEFGYSR
B2: FAM120A: host protein, UniProt Q9NZB2 (protein, UniProt Q9NZB2 1-1118, looked up)
Constitutive coactivator of …: MGVQGFQDYIEKHCPSAVVPVELQKLARGSLVGGGRQRPPQTPLRLLVDADNCLHRLYGGFYTDWVSGGQWNHMLGYLAALAKACFGGNIELFVFFNGALEKARLHEWVKRQGNERQTAQQIVSHVQNKGTPPPKVWFLPPVCMAHCIRLALIRFHVKVAQSIEDHHQEVIGFCRENGFHGLVAYDSDYALCNIPYYFSAHALKLSRNGKSLTTSQYLMHEVAKQLDLNPNRFPIFAALLGNHILPDEDLASFHWSLLGPEHPLASLKVRAHQLVLPPCDVVIKAVADYVRNIQDTSDLDAIAKDVFQHSQSRTDDKVIRFKRAIGYYSATSKPMSFHPPHYLAARPGPFGMPGMVPPHVPPQMLNIPQTSLQAKPVAPQVPSPGGAPGQGPYPYSLSEPAPLTLDTSGKNLTEQNSYSNIPHEGKHTPLYERSSPINPAQSGSPNHVDSAYFPGSSTSSSSDNDEGSGGATNHISGNKIGWEKTGSHSEPQARGDPGDQTKAEGSSTASSGSQLAEGKGSQMGTVQPIPCLLSMPTRNHMDITTPPLPPVAPEVLRVAEHRHKKGLMYPYIFHVLTKGEIKIAVSIEDEANKDLPPAALLYRPVRQYVYGVLFSLAESRKKTERLAFRKNRLPPEFSPVIIKEWAAYKGKSPQTPELVEALAFREWTCPNLKRLWLGKAVEDKNRRMRAFLACMRSDTPAMLNPANVPTHLMVLCCVLRYMVQWPGARILRRQELDAFLAQALSPKLYEPDQLQELKIENLDPRGIQLSALFMSGVDMALFANDACGQPIPWEHCCPWMYFDGKLFQSKLLKASREKTPLIDLCDGQADQAAKVEKMRQSVLEGLSFSRQSHTLPFPPPPALPFYPASAYPRHFGPVPPSQGRGRGFAGVCGFGGPYGETVATGPYRAFRVAAASGHCGAFSGSDSSRTSKSQGGVQPIPSQGGKLEIAGTVVGHWAGSRRGRGGRGPFPLQVVSVGGPARGRPRGVISTPVIRTFGRGGRYYGRGYKNQAAIQGRPPYAASAEEVAKELKSKSGESKSSAMSSDGSLAENGVMAEEKPAPQMNGSTGDARAPSHSESALNNDSKTCNTNPHLNALSTDSACRREAALEAAVLNKEE
B3: MATR3: host protein, UniProt P43243 (protein, UniProt P43243 2-847, looked up)
Matrin-3: SKSFQQSSLSRDSQGHGRDLSAAGIGLLAAATQSLSMPASLGRMNQGTARLASLMNLGMSSSLNQQGAHSALSSASTSSHNLQSIFNIGSRGPLPLSSQHRGDADQASNILASFGLSARDLDELSRYPEDKITPENLPQILLQLKRRRTEEGPTLSYGRDGRSATREPPYRVPRDDWEEKRHFRRDSFDDRGPSLNPVLDYDHGSRSQESGYYDRMDYEDDRLRDGERCRDDSFFGETSHNYHKFDSEYERMGRGPGPLQERSLFEKKRGAPPSSNIEDFHGLLPKGYPHLCSICDLPVHSNKEWSQHINGASHSRRCQLLLEIYPEWNPDNDTGHTMGDPFMLQQSTNPAPGILGPPPPSFHLGGPAVGPRGNLGAGNGNLQGPRHMQKGRVETSRVVHIMDFQRGKNLRYQLLQLVEPFGVISNHLILNKINEAFIEMATTEDAQAAVDYYTTTPALVFGKPVRVHLSQKYKRIKKPEGKPDQKFDQKQELGRVIHLSNLPHSGYSDSAVLKLAEPYGKIKNYILMRMKSQAFIEMETREDAMAMVDHCLKKALWFQGRCVKVDLSEKYKKLVLRIPNRGIDLLKKDKSRKRSYSPDGKESPSDKKSKTDGSQKTESSTEGKEQEEKSGEDGEKDTKDDQTEQEPNMLLESEDELLVDEEEAAALLESGSSVGDETDLANLGDVASDGKKEPSDKAVKKDGSASAAAKKKLKKVDKIEELDQENEAALENGIKNEENTEPGAESSENADDPNKDTSENADGQSDENKDDYTIPDEYRIGPYQPNVPVGIDYVIPKTGFYCKLCSLFYTNEEVAKNTHCSSLPHYQKLKKFLNKLAEERRQKKET
B4: RALY: host protein, UniProt Q9UKM9 (protein, UniProt Q9UKM9 2-306, looked up)
RNA-binding protein Raly: SLKLQASNVTNKNDPKSINSRVFIGNLNTALVKKSDVETIFSKYGRVAGCSVHKGYAFVQYSNERHARAAVLGENGRVLAGQTLDINMAGEPKPDRPKGLKRAASAIYSGYIFDYDYYRDDFYDRLFDYRGRLSPVPVPRAVPVKRPRVTVPLVRRVKTNVPVKLFARSTAVTTSSAKIKLKSSELQAIKTELTQIKSNIDALLSRLEQIAAEQKANPDGKKKGDGGGAGGGGGGGGSGGGGSGGGGGGGSSRPPAPQENTTSEAGLPQGEARTRDDGDEEGLLTHSEEELEHSQDTDADDGALQ

One experiment concerns SARS-CoV-2 gRNA. It is filed as binding.
Details: not given
For B1, the “enrichment in SARS-CoV-2 Probe I RNP capture” value was “found in the SARS-CoV-2 experiments”.

In the case of B2, the “enrichment in SARS-CoV-2 Probe I RNP capture” value was “found in the SARS-CoV-2 experiments”.

Turning to B3, the “enrichment in SARS-CoV-2 Probe I RNP capture” value is on record as “found in the SARS-CoV-2 experiments”.

Regarding B4, the “enrichment in SARS-CoV-2 Probe I RNP capture” value is listed as “found in the SARS-CoV-2 experiments”.

The experiment is the same for the next values; noted with them: […]; LC-MS/MS; Probe I sample (first 199 lines of Table 2).
Regarding B1, the “target (unweighted spectral count of the protein in the RNP capture)” value is reported as 16.

Take B3: the “target (unweighted spectral count of the protein in the RNP capture)” value stood at 56.

For the molecule B4, the “target (unweighted spectral count of the protein in the RNP capture)” value was 33.

A further experiment deals with SARS-CoV-2 gRNA and sgRNAs. It is filed as binding.
Details: not given
On to B1, for which the “enrichment in SARS-CoV-2 Probe II RNP capture” value was “found in the SARS-CoV-2 experiments”.

Turning to B2, the “enrichment in SARS-CoV-2 Probe II RNP capture” value is reported as “found in the SARS-CoV-2 experiments”.

Turning to B3, the “enrichment in SARS-CoV-2 Probe II RNP capture” value is “found in the SARS-CoV-2 experiments”.

On to B4, for which the “enrichment in SARS-CoV-2 Probe II RNP capture” value is reported as “found in the SARS-CoV-2 experiments”.

The same experiment, now with this note: Probe II capture; […]; LC-MS/MS LFQ.
B4: the “target (unweighted spectral count in RNP capture)” value came out at 28.

The experiment is the same for the next values; noted with them: no-probe control pull-down, used as background for Probe II.
Turning to B1, the “background (unweighted spectral count in control)” value was determined as 1.

With B4, the “background (unweighted spectral count in control)” value is listed as 1.

The next experiment deals with gRNA of HCoV-OC43. It counts as binding. As to conditions: type g_36_m; HCoV-OC43-infected HCT-8 cells, 36 hpi, Probe I.
In the case of B1, the “target (spectral count)” value turned out to be 16.

As to B2, the “target (spectral count)” value was 23.

As for B3, the “target (spectral count)” value is on record as 57.

Regarding B4, the “target (spectral count)” value amounted to 28.

Staying with this experiment, now noted: type g_36_m; uninfected-probe control, 36 hpi, Probe I.
In the case of B1, the “background (spectral count)” value was 3.

With B2, the “background (spectral count)” value is 2.

For B3, the “background (spectral count)” value was 4.

Turning to B4, the “background (spectral count)” value worked out at 3.

Staying with this experiment, now noted: type n_48_v: 48 hours post-infection, infected cells, OC43 Probe I; unweighted spectral count.
With B1, the “target (spectral count, OC43 Probe I RNP capture)” value is listed as 25.

As for B2, the “target (spectral count, OC43 Probe I RNP capture)” value was found to be 29.

B3: the “target (spectral count, OC43 Probe I RNP capture)” value is 41.

For B4, the “target (spectral count, OC43 Probe I RNP capture)” value is listed as 31.

The same experiment, now with this note: type n_48_v: 48 hours post-infection, no-probe control on infected cells.
Take B1: the “background (spectral count, no-probe control)” value worked out at 6.

In the case of B2, the “background (spectral count, no-probe control)” value worked out at 2.

Turning to B3, the “background (spectral count, no-probe control)” value was 3.

As to B4, the “background (spectral count, no-probe control)” value is given as 2.

The next experiment concerns HCoV-OC43 gRNA and sgRNA. It is filed as binding. To be noted: 36 hpi; type n_36_v; tested against no-probe control; FDR<10%.
B1: the “target (unweighted spectral count, OC43 Probe II capture)” value is on record as 57.

In the case of B2, the “target (unweighted spectral count, OC43 Probe II capture)” value is listed as 18.

For B3, the “target (unweighted spectral count, OC43 Probe II capture)” value is given as 39.

In the case of B4, the “target (unweighted spectral count, OC43 Probe II capture)” value was determined as 23.

Still in this experiment, the particulars now being: OC43 Probe II, 12 hpi (type n_12_v), infected cells; tested against no-probe control.
Turning to B1, the “target (unweighted spectral count)” value was 27.

Take B2: the “target (unweighted spectral count)” value turned out to be 4.

As for B3, the “target (unweighted spectral count)” value is 11.

On to B4, for which the “target (unweighted spectral count)” value was found to be 4.

Still in this experiment, the particulars now being: OC43 Probe II, 24 hpi (type n_24_v), infected cells; tested against no-probe control.
Regarding B1, the “target (unweighted spectral count)” value is listed as 37.

Turning to B2, the “target (unweighted spectral count)” value is listed as 18.

On to B3, for which the “target (unweighted spectral count)” value was found to be 20.

Turning to B4, the “target (unweighted spectral count)” value came to 14.

The same experiment, now with this note: type n_48_v; 48 hpi; OC43 Probe II capture on infected cells.
With B1, the “target (unweighted spectral count, OC43 Probe II)” value turned out to be 84.

On to B2, for which the “target (unweighted spectral count, OC43 Probe II)” value was 33.

B3: the “target (unweighted spectral count, OC43 Probe II)” value is 39.

As to B4, the “target (unweighted spectral count, OC43 Probe II)” value was 24.

Still in this experiment, the particulars now being: type n_48_v; 48 hpi; no-probe control on infected cells.
Take B1: the “background (unweighted spectral count, no-probe control)” value is listed as 6.

In the case of B2, the “background (unweighted spectral count, no-probe control)” value is 2.

With B3, the “background (unweighted spectral count, no-probe control)” value amounted to 3.

With B4, the “background (unweighted spectral count, no-probe control)” value is 2.

The experiment is the same for the next values; noted with them: type s_36_m; HCoV-OC43-infected HCT-8 cells, 36 hpi, Probe II.
Consider B1, for which the “target (spectral count)” value is 57.

As to B2, the “target (spectral count)” value was 19.

On to B3, for which the “target (spectral count)” value was 39.

On to B4, for which the “target (spectral count)” value is reported as 23.

The experiment is the same for the next values; noted with them: type s_36_m; uninfected-probe control, 36 hpi, Probe II.
With B1, the “background (spectral count)” value is given as 1.

Consider B2, for which the “background (spectral count)” value stood at 2.

Turning to B3, the “background (spectral count)” value was determined as 4.

Turning to B4, the “background (spectral count)” value is given as 2.

(Values after patent US20230407373A1 (priority 2020, published 2023).)
